# Measured values taken from patent US20240052042A1 (Novartis, published 2024).
# Read-outs that look alike come from different tables or passages of the source.
# T1: human NPR1 on CHO-K1 cells (human, UniProt P16066 33-1061)
# T1 construct: also called hNPR1 CHO K1; human NPR1 expressing CHO-K1 cells
# T1 sequence: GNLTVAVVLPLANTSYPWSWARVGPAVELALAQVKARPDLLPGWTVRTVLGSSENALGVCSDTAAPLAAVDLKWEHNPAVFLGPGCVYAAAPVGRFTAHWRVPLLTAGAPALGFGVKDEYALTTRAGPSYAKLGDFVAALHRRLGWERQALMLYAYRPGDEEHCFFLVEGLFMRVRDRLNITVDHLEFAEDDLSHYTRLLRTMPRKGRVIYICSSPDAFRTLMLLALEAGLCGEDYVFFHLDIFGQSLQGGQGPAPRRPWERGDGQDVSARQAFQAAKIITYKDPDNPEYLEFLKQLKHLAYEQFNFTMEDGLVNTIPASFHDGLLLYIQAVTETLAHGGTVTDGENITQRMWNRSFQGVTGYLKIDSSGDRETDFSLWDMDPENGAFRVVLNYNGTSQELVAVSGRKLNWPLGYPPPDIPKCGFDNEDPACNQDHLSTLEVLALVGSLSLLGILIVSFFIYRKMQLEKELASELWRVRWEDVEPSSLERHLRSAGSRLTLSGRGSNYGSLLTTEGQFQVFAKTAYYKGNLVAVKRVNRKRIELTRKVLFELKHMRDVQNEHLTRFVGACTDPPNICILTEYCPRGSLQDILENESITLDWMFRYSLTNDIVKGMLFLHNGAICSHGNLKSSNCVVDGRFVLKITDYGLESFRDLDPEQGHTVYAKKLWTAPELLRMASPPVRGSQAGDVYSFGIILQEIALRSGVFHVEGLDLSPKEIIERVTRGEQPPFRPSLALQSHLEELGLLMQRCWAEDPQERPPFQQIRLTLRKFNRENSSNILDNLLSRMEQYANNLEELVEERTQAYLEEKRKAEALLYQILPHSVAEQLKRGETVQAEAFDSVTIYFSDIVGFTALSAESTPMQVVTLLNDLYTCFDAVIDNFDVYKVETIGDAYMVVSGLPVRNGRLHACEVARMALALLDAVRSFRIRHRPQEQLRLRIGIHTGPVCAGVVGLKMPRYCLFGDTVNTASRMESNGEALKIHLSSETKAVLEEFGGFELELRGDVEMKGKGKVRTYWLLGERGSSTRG
# T2: rNPR1-ANP complex (rat, UniProt P01160 124-151 (human entry), limits assumed)
# T2 construct: rNPR1 antigen in the presence of ANP; also called rNPR1 + 100 nM ANP
# T2 sequence: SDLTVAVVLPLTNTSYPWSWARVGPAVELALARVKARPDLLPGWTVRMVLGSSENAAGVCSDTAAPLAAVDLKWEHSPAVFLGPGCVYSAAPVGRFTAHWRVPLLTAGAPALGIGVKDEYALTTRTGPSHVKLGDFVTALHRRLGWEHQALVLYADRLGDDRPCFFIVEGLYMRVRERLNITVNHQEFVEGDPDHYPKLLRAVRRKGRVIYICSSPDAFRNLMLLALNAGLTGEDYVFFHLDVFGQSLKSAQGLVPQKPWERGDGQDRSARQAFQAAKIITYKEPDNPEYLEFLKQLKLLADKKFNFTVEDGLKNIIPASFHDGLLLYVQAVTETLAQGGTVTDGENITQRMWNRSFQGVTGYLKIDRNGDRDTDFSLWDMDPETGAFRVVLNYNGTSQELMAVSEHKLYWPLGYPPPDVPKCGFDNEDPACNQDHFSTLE
# T2 sequence (peptide): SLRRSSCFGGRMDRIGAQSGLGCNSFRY
# T3: hNPR1-ANP complex (human, UniProt P01160 124-151, limits assumed)
# T3 construct: hNPR1 antigen in the presence of ANP; also called hNPR1 + 100 nM ANP
# T3 sequence: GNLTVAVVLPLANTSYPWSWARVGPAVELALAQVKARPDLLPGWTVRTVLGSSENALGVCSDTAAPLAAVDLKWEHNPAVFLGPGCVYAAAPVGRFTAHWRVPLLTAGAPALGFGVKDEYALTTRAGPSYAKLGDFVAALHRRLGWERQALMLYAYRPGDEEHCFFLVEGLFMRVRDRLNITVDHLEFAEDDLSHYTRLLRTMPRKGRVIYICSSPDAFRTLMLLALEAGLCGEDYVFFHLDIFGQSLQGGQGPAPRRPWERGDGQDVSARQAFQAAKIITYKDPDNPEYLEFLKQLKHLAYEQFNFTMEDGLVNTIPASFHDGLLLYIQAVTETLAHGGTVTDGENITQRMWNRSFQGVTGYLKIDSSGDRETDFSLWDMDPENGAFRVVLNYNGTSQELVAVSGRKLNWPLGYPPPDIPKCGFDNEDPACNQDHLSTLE
# T3 sequence (peptide): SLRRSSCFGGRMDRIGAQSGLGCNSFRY
# T4: human NPR1 on CHO-K1 cells in the presence of ANP (human, UniProt P01160 124-151)
# T4 construct: also called hNPR1 CHO K1 + 100 nM ANP
# T4 sequence: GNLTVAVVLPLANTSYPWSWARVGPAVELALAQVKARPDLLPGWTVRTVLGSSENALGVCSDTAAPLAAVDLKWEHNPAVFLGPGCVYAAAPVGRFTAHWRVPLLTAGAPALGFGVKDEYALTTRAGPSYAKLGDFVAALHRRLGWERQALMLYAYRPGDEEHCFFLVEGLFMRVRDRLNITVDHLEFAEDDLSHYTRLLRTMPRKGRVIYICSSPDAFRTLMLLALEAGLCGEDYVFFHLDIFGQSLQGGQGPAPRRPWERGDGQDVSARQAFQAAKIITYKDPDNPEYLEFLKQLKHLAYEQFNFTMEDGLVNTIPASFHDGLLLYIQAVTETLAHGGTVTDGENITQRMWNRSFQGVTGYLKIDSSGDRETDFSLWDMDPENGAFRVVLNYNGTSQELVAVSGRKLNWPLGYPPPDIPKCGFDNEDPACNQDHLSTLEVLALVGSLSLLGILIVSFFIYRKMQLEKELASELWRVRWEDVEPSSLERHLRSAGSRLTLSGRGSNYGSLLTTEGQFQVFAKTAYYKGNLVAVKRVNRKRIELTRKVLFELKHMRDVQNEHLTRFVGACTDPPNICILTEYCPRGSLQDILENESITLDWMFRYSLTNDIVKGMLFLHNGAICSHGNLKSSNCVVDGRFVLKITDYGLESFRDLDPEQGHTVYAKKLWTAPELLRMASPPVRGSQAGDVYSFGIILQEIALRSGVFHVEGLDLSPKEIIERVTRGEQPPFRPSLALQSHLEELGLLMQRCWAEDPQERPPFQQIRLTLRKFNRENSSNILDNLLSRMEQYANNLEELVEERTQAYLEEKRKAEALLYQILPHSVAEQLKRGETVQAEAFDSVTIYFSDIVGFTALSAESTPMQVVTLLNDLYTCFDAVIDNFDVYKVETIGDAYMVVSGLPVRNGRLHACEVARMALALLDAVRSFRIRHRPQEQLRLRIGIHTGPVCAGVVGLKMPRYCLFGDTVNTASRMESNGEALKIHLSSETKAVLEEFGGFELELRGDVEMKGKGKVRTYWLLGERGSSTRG
# T4 sequence (peptide): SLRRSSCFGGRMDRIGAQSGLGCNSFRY
# T5: human Natriuretic Peptide Receptor 1 (hNPR1) (human, UniProt P16066 33-473, limits assumed)
# T5 construct: pannings used NPR1-hFc; also called NPR1-hFc
# T5 sequence: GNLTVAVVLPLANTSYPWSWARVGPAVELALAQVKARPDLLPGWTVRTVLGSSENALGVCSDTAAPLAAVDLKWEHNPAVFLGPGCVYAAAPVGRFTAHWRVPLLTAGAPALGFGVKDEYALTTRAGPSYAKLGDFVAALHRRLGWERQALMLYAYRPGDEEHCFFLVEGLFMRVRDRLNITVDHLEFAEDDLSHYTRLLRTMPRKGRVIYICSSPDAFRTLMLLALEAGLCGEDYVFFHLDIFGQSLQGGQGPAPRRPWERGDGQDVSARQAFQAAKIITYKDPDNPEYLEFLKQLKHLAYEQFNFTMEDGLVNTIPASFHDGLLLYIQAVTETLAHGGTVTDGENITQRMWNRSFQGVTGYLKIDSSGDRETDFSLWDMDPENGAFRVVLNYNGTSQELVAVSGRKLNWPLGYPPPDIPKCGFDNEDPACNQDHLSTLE
# Experiments:
# [1] = target: T1, human NPR1 on CHO-K1 cells; experiment: flow cytometry (FL2-H) on hNPR1 CHO-K1 cells without ANP, IgG titrated; control parental CHO-K1 [panel YY02]
# rNPR1-ANP complex [2] = target: T2, rNPR1-ANP complex; experiment: ELISA, IgG titrated on coated antigen with ANP (250 fold molar excess), fluorescence [Cont.]
# hNPR1-ANP complex [3] = target: T3, hNPR1-ANP complex; experiment: as above
# [4] = target: T4, human NPR1 on CHO-K1 cells in the …; experiment: flow cytometry (FL2-H) on hNPR1 CHO-K1 cells with saturating ANP, IgG titrated; control parental CHO-K1 [panel YY02]
# rNPR1-ANP complex [5] = target: T2, rNPR1-ANP complex; experiment: ELISA, IgG titrated on coated antigen with ANP (250 fold molar excess), fluorescence [Cont.]; remark: listed apart in the source
# hNPR1-ANP complex [6] = target: T3, hNPR1-ANP complex; experiment: as above; remark: listed apart in the source
# [7] = target: T5, human Natriuretic Peptide Receptor 1 …; experiment: ELISA, IgG titrated on coated antigen, fluorescence [Cont.]
# [8] = target: T4, human NPR1 on CHO-K1 cells in the …; experiment: flow cytometry (FL2-H) on hNPR1 CHO-K1 cells with saturating ANP, IgG titrated; control parental CHO-K1 [panel YY03]
EC50 (read off the curve) [1] [nM],EC50 (read off the curve) (rNPR1-ANP complex [2]) [nM],EC50 (read off the curve) (hNPR1-ANP complex [3]) [nM],EC50 (read off the curve) [4] [nM],EC50 (read off the curve) (rNPR1-ANP complex [5]) [nM],EC50 (read off the curve) (hNPR1-ANP complex [6]) [nM],binding result [7],EC50 (read off the curve) [8] [nM],Binder
~200,~0.3,~0.8,~1,,,,,"YY02 (IgG format) (antibody, V domains shown, IgG format; also called YY02_LALA) VH: EVQLVESGGGLVKPGGSLRLSCAASGFTFSSYSMNWVRQAPGKGLEWVSSISSSSSYIYYADSVKGRFTISRDNAKNSLYLQMNSLRAEDTAVYYCARSGYRGVYGFDYWGQGTLVTVSS VL: DIQMTQSPSSVSASVGDRVTITCRASQGISSWLAWYQQKPGKAPKLLIYAASSLQSGVPSRFSGSGSGTDFTLTISSLQPEDFATYYCQQYYHSPLTFGQGTKVEIKR"
,,,,~0.2,~1,binds,~2,"YY03 (IgG format) (antibody, V domains shown, IgG format; also called YY03_LALA) VH: EVQLLESGGGLVQPGGSLRLSCAASGFTFSSYAISWVRQAPGKGLEWVSAISGSGGSTYYAESVKGRFTISRDNSKNTLYLQMNSLRAEDTAVYYCARESGYVYYLKFDYWGQGTLVTVSS VL: DIQMTQSPSSLSASVGDRVTITCRASQSISSYLNWYQQKPGKAPKLLIYAASSLQSGVPSRFSGSGSGTDFTLTISSLQPEDFATYYCQQHVRVPITFGQGTKVEIKR"
